In patent US20030091584A1 (AstraZeneca / MedImmune, published 2003):
Where “and” joins values, the source holds several entries; their conditions need not be identical. Identical values can stand only once.

T1: RSV F glycoprotein (NUF4) (respiratory syncytial virus)
T1 chain 1: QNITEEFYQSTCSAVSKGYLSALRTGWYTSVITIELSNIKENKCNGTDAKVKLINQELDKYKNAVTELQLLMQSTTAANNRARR
T1 chain 2: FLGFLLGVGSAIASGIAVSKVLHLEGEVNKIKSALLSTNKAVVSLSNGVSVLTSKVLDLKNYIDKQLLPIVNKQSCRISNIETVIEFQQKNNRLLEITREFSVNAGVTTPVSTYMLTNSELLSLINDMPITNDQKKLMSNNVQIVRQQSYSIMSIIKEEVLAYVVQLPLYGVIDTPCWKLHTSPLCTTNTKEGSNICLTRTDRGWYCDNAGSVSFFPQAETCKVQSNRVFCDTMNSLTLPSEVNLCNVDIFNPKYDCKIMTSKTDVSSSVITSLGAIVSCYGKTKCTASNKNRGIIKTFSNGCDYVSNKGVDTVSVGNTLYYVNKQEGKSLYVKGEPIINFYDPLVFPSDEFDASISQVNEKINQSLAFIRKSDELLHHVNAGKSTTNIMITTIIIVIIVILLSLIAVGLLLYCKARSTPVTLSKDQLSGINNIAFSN


How the values were obtained:
[1] = molecular target: T2, F protein of wild type RSV A/Long (respiratory syncytial virus strain …, UniProt P12568 26-574); assay: cell-based or functional assay
[2] = molecular target: T2, F protein of wild type RSV A/Long; assay: cell-based or functional assay; remark: listed apart in the source
[3] = molecular target: T1, RSV F glycoprotein (NUF4); assay: BIAcore, mAb vs NUF4 (1:1)
[4] = molecular target: T1, RSV F glycoprotein (NUF4); assay: BIAcore, mAb vs NUF4 (2:1)
Bac-F = molecular target: T3, Bac-F; assay: BIAcore, mAb vs Bac-F (1:1)
T3 construct: Construct and strain not described

[5] = molecular target: T4, F protein of RSV A/Long MARM with K272N (respiratory syncytial virus strain …, UniProt P12568 26-574); assay: IFA on MARM-infected HEp-2 cells
T4 construct: whole, on cells; also called MARM B1

[6] = molecular target: T5, F protein of RSV A/Long MARM with K272M (respiratory syncytial virus strain …, UniProt P12568 26-574); assay: IFA on MARM-infected HEp-2 cells
T5 construct: whole, on cells; Seven independent isolates with the same change are kept as one molecule; also called MARM B2; MARM B3

[7] = molecular target: T6, F protein of RSV A/Long MARM with K272T (respiratory syncytial virus strain …, UniProt P12568 26-574); assay: IFA on MARM-infected HEp-2 cells
T6 construct: whole, on cells; also called MARM B7; MARM B10

[8] = molecular target: T7, F protein of RSV A/Long MARM with K272Q (respiratory syncytial virus strain …, UniProt P12568 26-574); assay: IFA on MARM-infected HEp-2 cells
T7 construct: whole, on cells; also called MARM B9; B9

[9] = molecular target: T8, F protein of RSV A/Long MARM with K272E, N276Y (respiratory syncytial virus strain …, UniProt P12568 26-574); assay: IFA on MARM-infected HEp-2 cells
T8 construct: whole, on cells; also called MARM #10; MARM 10

[10] = molecular target: T9, F protein of RSV A/Long MARM with K272E (respiratory syncytial virus strain …, UniProt P12568 26-574); assay: IFA on MARM-infected HEp-2 cells
T9 construct: whole, on cells; also called MARM #6; MARM #9

[11] = molecular target: T10, F protein of RSV MARM with K272Q, N262K (respiratory syncytial virus strain …, UniProt P12568 26-574); assay: IFA on MARM-infected HEp-2 cells
T10 construct: whole, on cells; also called MARM #13; MARM 13

[12] = molecular target: T1, RSV F glycoprotein (NUF4); assay: ITC, NUF4 titrated into antibody
[13] = molecular target: T1, RSV F glycoprotein (NUF4); assay: ITC, NUF4 titrated into antibody, 35 °C
[14] = molecular target: T1, RSV F glycoprotein (NUF4); assay: ITC, NUF4 titrated into antibody, 35 °C (1/Kb)
[15] = molecular target: RSV F protein (immobilized on the BIAcore sensor chip) (respiratory syncytial virus); assay: BIAcore, immobilized F protein;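 further: fab fragments as analytes binding F protein coupled to the chip via EDC/NHS chemistry, with blank surface signal subtracted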

Row | Binder | EC50 (nM), in vitro microneutralization of RSV Long [1] | Mean IC50 (Control), RSV microneutralization [2] | Mean IC50 (Curve), RSV microneutralization [2] | Kd [3] | Kd [4] | Kd (Bac-F) | binding result [9] | binding result [10] | binding result [11] | Fold Difference (Control IC50) [2] | Fold Difference (Curve IC50) [2] | koff [3] | kon [3] | number in parentheses after KD (fold against SYNAGIS = 1) [3] | koff [4] | kon [4] | number in parentheses after KD (fold against SYNAGIS = 1) [4] | ΔHb (binding enthalpy) [12] | Ka [13] | Kd [14] | other results
1 | SYNAGIS® (monoclonal antibody) (antibody, V domains shown, also called SYNAGIS ®/SYNAGIS ® (HC/LC)) VH: QVTLRESGPALVKPTQTLTLTCTFSGFSLSTSGMSVGWIRQPPGKALEWLADIWWDDKKDYNPSLKSRLTISKDTSKNQVVLKVTNMDPADTATYYCARSMITNWYFDVWGAGTTVTVSS VL: DIQMTQSPSTLSASVGDRVTITCKCQLSVGYMHWYQQKPGKAPKLLIYDTSKLASGVPSRFSGSGSGTEFTLTISSLQPDDFATYYCFQGSGYPFTFGGGTKLEIK | 3.57 nM | 0.535 µg/mL | 0.453 µg/mL | 8.7 nM | 312 nM | 3.9 nM | no binding (tested: 250 ng/ml) | no binding (tested: 250 ng/ml) | no binding (tested: 250 ng/ml) |  |  |  |  |  |  |  |  |  |  |  | binding result [5]: no binding (tested: 250 ng/ml); binding result [6]: no binding (tested: 250 ng/ml); binding result [7]: no binding (tested: 250 ng/ml); binding result [8]: no binding (tested: 250 ng/ml)
2 | A4B4 (monoclonal antibody) (antibody, V domains shown, mAb; also called A4B4/A4B4 (HC/LC)) VH: QVTLRESGPALVKPTQTLTLTCTFSGFSLSTAGMSVGWIRQPPGKALEWLADIWWDDKKHYNPSLKDRLTISKDTSKNQVVLKVTNMDPADTATYYCARDMIFNFYFDVWGQGTTVTVSS VL: DIQMTQSPSTLSASVGDRVTITCSASSRVGYMHWYQQKPGKAPKLLIYDTFFLDSGVPSRFSGSGSGTEFTLTISSLQPDDFATYYCFQGSGYPFTFGGGTKLEIK |  | 0.0154 µg/mL | 0.0171 µg/mL | 0.57 nM | 2 nM | 0.02 nM | no binding (tested: 250 ng/ml) | no binding (tested: 250 ng/ml) | no binding (tested: 250 ng/ml) | 35 fold | 27 fold | 0.000282 s⁻¹ | 496000 M⁻¹ s⁻¹ | 15 fold | 0.000401 s⁻¹ | 203000 M⁻¹ s⁻¹ | 156 fold | 22.2 kcal/mol | 2.69e+08 M⁻¹ | ~3.7 nM | koff (Bac-F): 1.06e-05 s⁻¹; kon (Bac-F): 434000 M⁻¹ s⁻¹; number in parentheses after KD (fold against SYNAGIS = 1) (Bac-F): 195 fold
3 | A17d4 (monoclonal antibody) (antibody, V domains shown, mAb with framework and constant regions of SYNAGIS) VH: QVTLRESGPALVKPTQTLTLTCTFSGFSLSTAGMSVGWIRQPPGKALEWLADIWWDGKKSYNPSLKDRLTISKDTSKNQVVLKVTNMDPADTATYYCARDMIFNFYFDVWGQGTTVTVSS VL: DIQMTQSPSTLSASVGDRVTITCLPSSRVGYMHWYQQKPGKAPKLLIYDTMYQASGVPSRFSGSGSGTEFTLTISSLQPDDFATYYCFQFSGYPFTFGGGTKLEIK |  | 0.0354 µg/mL | 0.0342 µg/mL | 0.73 nM | 1.11 nM |  |  |  |  | 15 fold | 13 fold | 0.000362 s⁻¹ | 499000 M⁻¹ s⁻¹ | 12 fold | 0.000292 s⁻¹ | 264000 M⁻¹ s⁻¹ | 281 fold | 16.3 kcal/mol | 7.5e+07 M⁻¹ | 13 nM | 
4 | A13c4 (Fab fragment) (Fab, V domains shown, Fab) VH: QVTLRESGPALVKPTQTLTLTCTFSGFSLSTAGMSVGWIRQPPGKALEWLADIWWDGKKSYNPSLKDRLTISKDTSKNQVVLKVTNMDPADTATYYCARDMIFNFYFDVWGQGTTVTVSS VL: DIQMTQSPSTLSASVGDRVTITCSLSSRVGYMHWYQQKPGKAPKLLIYDTMYQSSGVPSRFSGSGSGTEFTLTISSLQPDDFATYYCFQGSGYPFTFGGGTKVEIK | 0.52 nM | 0.0258 µg/mL | 0.0264 µg/mL |  |  |  |  |  |  | 21 fold | 17 fold |  |  |  |  |  |  |  |  |  | koff [15]: 0.00028 s⁻¹; kon [15]: 781000 M⁻¹ s⁻¹ and 735000 M⁻¹ s⁻¹
5 | A13c4 (monoclonal antibody) (antibody, V domains shown, mAb with framework and constant regions of SYNAGIS) VH: QVTLRESGPALVKPTQTLTLTCTFSGFSLSTAGMSVGWIRQPPGKALEWLADIWWDGKKSYNPSLKDRLTISKDTSKNQVVLKVTNMDPADTATYYCARDMIFNFYFDVWGQGTTVTVSS VL: DIQMTQSPSTLSASVGDRVTITCSLSSRVGYMHWYQQKPGKAPKLLIYDTMYQSSGVPSRFSGSGSGTEFTLTISSLQPDDFATYYCFQGSGYPFTFGGGTKVEIK |  | 0.0375 µg/mL | 0.0376 µg/mL | 0.75 nM | 0.7 nM |  |  |  |  | 14 fold | 12 fold | 0.000272 s⁻¹ | 365000 M⁻¹ s⁻¹ | 12 fold | 0.000225 s⁻¹ | 320000 M⁻¹ s⁻¹ | 446 fold | 16 kcal/mol | 1.07e+08 M⁻¹ | 9 nM | 
